Results on one molecule are retold here after paper PMC8924211 (Nature Communications, 2022).

The term Kd denotes the concentration at which binding is half-saturated.

Assay in all cases: AlphaScreen or HTRF; saturation binding: HEK293 cells transfected with SNAP-tagged receptor (WT or mutant) and labelled with SNAP-Lumi4-Tb, incubated with increasing concentrations of galanin-A2 in the presence or absence of 100 uM unlabeled galanin, 1 h at room temperature; HTRF ratio 665 nm/620 nm
Details in all cases: one partner purified

Assay [1] has as its target T1, N-terminal-SNAP-tagged GAL2R, wild type (human, UniProt O43603 1-387, Lumi4-Tb on the SNAP tag).
T1 construct: also called SNAP-GAL2R; GAL2R WT; source: HEK293, transfected, on cells; not shown: SNAP tag, N-terminal, kept
T1 sequence (looked up): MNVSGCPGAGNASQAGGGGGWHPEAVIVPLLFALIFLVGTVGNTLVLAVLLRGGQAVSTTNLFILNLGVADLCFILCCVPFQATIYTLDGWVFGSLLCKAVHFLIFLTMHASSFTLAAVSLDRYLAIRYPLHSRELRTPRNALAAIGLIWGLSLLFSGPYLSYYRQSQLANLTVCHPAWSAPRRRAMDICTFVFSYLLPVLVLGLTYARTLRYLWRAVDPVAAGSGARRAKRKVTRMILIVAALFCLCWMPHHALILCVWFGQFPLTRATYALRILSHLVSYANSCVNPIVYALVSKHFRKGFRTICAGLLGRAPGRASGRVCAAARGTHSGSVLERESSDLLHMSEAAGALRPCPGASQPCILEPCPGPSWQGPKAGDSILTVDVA

The target of the next assay is T2, SNAP-GAL2R V259^6.58A (human, UniProt O43603 1-387, V259^6.58A, Lumi4-Tb on the SNAP tag).
T2 construct: also called V259A; source: HEK293, transfected, on cells; not shown: SNAP tag, N-terminal, kept
T2 sequence (looked up): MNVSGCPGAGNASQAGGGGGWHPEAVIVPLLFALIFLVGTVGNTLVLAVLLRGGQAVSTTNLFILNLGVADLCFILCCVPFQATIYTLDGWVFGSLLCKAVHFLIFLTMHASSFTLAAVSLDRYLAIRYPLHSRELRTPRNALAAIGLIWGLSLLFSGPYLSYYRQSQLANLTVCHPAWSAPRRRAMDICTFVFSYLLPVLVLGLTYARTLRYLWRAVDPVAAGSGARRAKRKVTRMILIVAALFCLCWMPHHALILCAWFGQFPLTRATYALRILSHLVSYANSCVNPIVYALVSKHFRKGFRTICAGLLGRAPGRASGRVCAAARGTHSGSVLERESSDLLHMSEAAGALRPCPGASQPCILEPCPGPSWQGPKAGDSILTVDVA

A further assay addresses T3, SNAP-GAL2R T267^7.28A (human, UniProt O43603 1-387, T267^7.28A, Lumi4-Tb on the SNAP tag).
T3 construct: also called T267A; source: HEK293, transfected, on cells; not shown: SNAP tag, N-terminal, kept
T3 sequence (looked up): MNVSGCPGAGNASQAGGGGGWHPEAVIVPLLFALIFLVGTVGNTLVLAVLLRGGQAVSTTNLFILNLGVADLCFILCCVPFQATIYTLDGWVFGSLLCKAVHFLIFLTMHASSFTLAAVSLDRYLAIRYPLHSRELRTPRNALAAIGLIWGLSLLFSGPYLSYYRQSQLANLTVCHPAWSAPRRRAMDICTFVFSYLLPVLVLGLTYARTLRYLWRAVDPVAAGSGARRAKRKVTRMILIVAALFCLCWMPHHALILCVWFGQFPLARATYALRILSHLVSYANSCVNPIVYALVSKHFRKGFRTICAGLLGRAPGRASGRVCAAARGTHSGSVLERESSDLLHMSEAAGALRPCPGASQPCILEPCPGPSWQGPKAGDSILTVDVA

Another assay concerns the target T4, SNAP-GAL2R R274^7.35A (human, UniProt O43603 1-387, R274^7.35A, Lumi4-Tb on the SNAP tag).
T4 construct: also called R274A; source: HEK293, transfected, on cells; not shown: SNAP tag, N-terminal, kept
T4 sequence (looked up): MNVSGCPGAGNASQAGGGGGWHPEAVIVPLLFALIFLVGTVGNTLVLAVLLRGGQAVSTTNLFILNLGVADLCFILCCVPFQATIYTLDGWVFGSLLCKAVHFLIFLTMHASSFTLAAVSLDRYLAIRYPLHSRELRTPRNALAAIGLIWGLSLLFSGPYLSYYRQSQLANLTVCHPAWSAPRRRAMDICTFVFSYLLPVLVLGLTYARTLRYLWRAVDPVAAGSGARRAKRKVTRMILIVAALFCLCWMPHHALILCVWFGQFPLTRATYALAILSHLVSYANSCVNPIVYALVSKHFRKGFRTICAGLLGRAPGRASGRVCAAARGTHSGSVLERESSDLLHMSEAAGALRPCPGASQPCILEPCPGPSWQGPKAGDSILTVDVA

B1: galanin-A2 (full-length galanin labeled with the dye A2 on an additional cysteine at the C-terminal end) (peptide)
peptide: GWTLNSAGYLLGPHAVGNHRSFSDKNGLTSC
modifications: dye A2 on the additional C-terminal cysteine
notes: numbers count on: the mature protein; additional cysteine at the C-terminal end of the peptide, carries the dye A2; source: synthetic peptide (synthesized by Vazyme, China)
Turning to B1, the Kd in assay [1] was 21.7 nM; with SNAP-GAL2R V259^6.58A it was 180 nM; in the assay with SNAP-GAL2R T267^7.28A, 229 nM; with SNAP-GAL2R R274^7.35A, 553 nM.
